Patent US20160272683A1 (Novo Nordisk, published 2016)
Numbered stars: 1 amine (or outer) side, 2 acyl side, 3 side chain; on linkers, the order of the positions; unused ones are H or OH. Ends that are not written are not given here. * marks the point of attachment. C20 diacid = O=C(O)CCCCCCCCCCCCCCCCCCC(=O)*; C18 diacid = O=C(O)CCCCCCCCCCCCCCCCC(=O)*; γGlu = O=C(O)[C@H](CCC(=O)[*:2])N[*:1]

What was measured:
[1] = biological target: T1, human amylin 3(a) receptor (human calcitonin receptor co-expressed with RAMP-3) (human, UniProt P30988 25-474; O60896 24-148, limits assumed); experiment: cell-based or functional assay
T1 sequence (looked up) 1: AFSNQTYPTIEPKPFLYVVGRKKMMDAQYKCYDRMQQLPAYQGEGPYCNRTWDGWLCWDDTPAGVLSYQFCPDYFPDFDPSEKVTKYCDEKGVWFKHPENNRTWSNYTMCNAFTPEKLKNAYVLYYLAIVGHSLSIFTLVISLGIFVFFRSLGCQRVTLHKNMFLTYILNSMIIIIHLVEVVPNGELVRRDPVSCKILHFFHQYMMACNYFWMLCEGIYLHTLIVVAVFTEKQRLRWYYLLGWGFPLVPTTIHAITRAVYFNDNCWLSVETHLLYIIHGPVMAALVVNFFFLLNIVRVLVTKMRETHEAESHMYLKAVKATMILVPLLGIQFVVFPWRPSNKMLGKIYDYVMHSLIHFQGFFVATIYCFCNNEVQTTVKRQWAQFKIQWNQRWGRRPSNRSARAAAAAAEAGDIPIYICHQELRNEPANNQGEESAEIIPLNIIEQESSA
T1 sequence (looked up) 2: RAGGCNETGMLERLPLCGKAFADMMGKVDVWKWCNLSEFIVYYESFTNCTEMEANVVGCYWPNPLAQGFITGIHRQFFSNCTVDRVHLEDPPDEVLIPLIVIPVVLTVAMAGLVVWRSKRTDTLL

[2] = biological target: T2, human calcitonin receptor (human, UniProt P30988 25-474); experiment: cell-based or functional assay
T2 sequence (looked up): T1 sequence (looked up) 1

{C18 diacid}-EASELSTAALGRLSAELHELATLPRTETGPESP-OH [[N-terminal(C18 diacid), C-terminal(-)]mimylin]
hAmylin-R funct. EC50 (pM) [1]: 481 pM | hCTR funct. EC50 (pM) [2]: 45 pM

B1: [N-terminal(C20 diacid-gGlu), 2L, 4G, 8L, 9V, 15Q, 21Q, 23Y, 27G, 30S, 31G, 32T, 33Y]mimylin (peptide)
peptide: {C20 diacid-γGlu}-ELSGLSTLVLGRLSQELHELQTYPRTGTGSGTY-NH2
SMILES: CC(C)C[C@H](NC(=O)CNC(=O)[C@H](CO)NC(=O)[C@H](CC(C)C)NC(=O)[C@H](CCC(=O)O)NC(=O)CC[C@H](NC(=O)CCCCCCCCCCCCCCCCCCC(=O)O)C(=O)O)C(=O)N[C@@H](CO)C(=O)N[C@H](C(=O)N[C@@H](CC(C)C)C(=O)N[C@H](C(=O)N[C@@H](CC(C)C)C(=O)NCC(=O)N[C@@H](CCCNC(=N)N)C(=O)N[C@@H](CC(C)C)C(=O)N[C@@H](CO)C(=O)N[C@@H](CCC(N)=O)C(=O)N[C@@H](CCC(=O)O)C(=O)N[C@@H](CC(C)C)C(=O)N[C@@H](Cc1c[nH]cn1)C(=O)N[C@@H](CCC(=O)O)C(=O)N[C@@H](CC(C)C)C(=O)N[C@@H](CCC(N)=O)C(=O)N[C@H](C(=O)N[C@@H](Cc1ccc(O)cc1)C(=O)N1CCC[C@H]1C(=O)N[C@@H](CCCNC(=N)N)C(=O)N[C@H](C(=O)NCC(=O)N[C@H](C(=O)NCC(=O)N[C@@H](CO)C(=O)NCC(=O)N[C@H](C(=O)N[C@@H](Cc1ccc(O)cc1)C(N)=O)[C@@H](C)O)[C@@H](C)O)[C@@H](C)O)[C@@H](C)O)C(C)C)[C@@H](C)O
hAmylin-R funct. EC50 (pM) [1]: 25 pM | hCTR funct. EC50 (pM) [2]: 25 pM

B2: [N-terminal(C20 diacid-gGlu), des1, 4G, 9V, 15Q, 21Q, 23aQ, 23bT, 23cY, 30S, 31Q, 32T, 33Y]mimylin (peptide)
peptide: {C20 diacid-γGlu}-ASGLSTAVLGRLSQELHELQTLQTYPRTETGSQTY-NH2
SMILES: CC(C)C[C@H](NC(=O)CNC(=O)[C@H](CO)NC(=O)[C@H](C)NC(=O)CC[C@H](NC(=O)CCCCCCCCCCCCCCCCCCC(=O)O)C(=O)O)C(=O)N[C@@H](CO)C(=O)N[C@H](C(=O)N[C@@H](C)C(=O)N[C@H](C(=O)N[C@@H](CC(C)C)C(=O)NCC(=O)N[C@@H](CCCNC(=N)N)C(=O)N[C@@H](CC(C)C)C(=O)N[C@@H](CO)C(=O)N[C@@H](CCC(N)=O)C(=O)N[C@@H](CCC(=O)O)C(=O)N[C@@H](CC(C)C)C(=O)N[C@@H](Cc1c[nH]cn1)C(=O)N[C@@H](CCC(=O)O)C(=O)N[C@@H](CC(C)C)C(=O)N[C@@H](CCC(N)=O)C(=O)N[C@H](C(=O)N[C@@H](CC(C)C)C(=O)N[C@@H](CCC(N)=O)C(=O)N[C@H](C(=O)N[C@@H](Cc1ccc(O)cc1)C(=O)N1CCC[C@H]1C(=O)N[C@@H](CCCNC(=N)N)C(=O)N[C@H](C(=O)N[C@@H](CCC(=O)O)C(=O)N[C@H](C(=O)NCC(=O)N[C@@H](CO)C(=O)N[C@@H](CCC(N)=O)C(=O)N[C@H](C(=O)N[C@@H](Cc1ccc(O)cc1)C(N)=O)[C@@H](C)O)[C@@H](C)O)[C@@H](C)O)[C@@H](C)O)[C@@H](C)O)C(C)C)[C@@H](C)O
hAmylin-R funct. EC50 (pM) [1]: 54 pM | hCTR funct. EC50 (pM) [2]: 45 pM

B3: [N-terminal(C20 diacid-gGlu), des1, 4G, 9V, 12K, 15Q, 21Q, 23Y, 25P, 30S, 31G, 32T, 33Y]mimylin (peptide)
peptide: {C20 diacid-γGlu}-ASGLSTAVLGKLSQELHELQTYPPTETGSGTY-NH2
SMILES: CC(C)C[C@H](NC(=O)CNC(=O)[C@H](CO)NC(=O)[C@H](C)NC(=O)CC[C@H](NC(=O)CCCCCCCCCCCCCCCCCCC(=O)O)C(=O)O)C(=O)N[C@@H](CO)C(=O)N[C@H](C(=O)N[C@@H](C)C(=O)N[C@H](C(=O)N[C@@H](CC(C)C)C(=O)NCC(=O)N[C@@H](CCCCN)C(=O)N[C@@H](CC(C)C)C(=O)N[C@@H](CO)C(=O)N[C@@H](CCC(N)=O)C(=O)N[C@@H](CCC(=O)O)C(=O)N[C@@H](CC(C)C)C(=O)N[C@@H](Cc1c[nH]cn1)C(=O)N[C@@H](CCC(=O)O)C(=O)N[C@@H](CC(C)C)C(=O)N[C@@H](CCC(N)=O)C(=O)N[C@H](C(=O)N[C@@H](Cc1ccc(O)cc1)C(=O)N1CCC[C@H]1C(=O)N1CCC[C@H]1C(=O)N[C@H](C(=O)N[C@@H](CCC(=O)O)C(=O)N[C@H](C(=O)NCC(=O)N[C@@H](CO)C(=O)NCC(=O)N[C@H](C(=O)N[C@@H](Cc1ccc(O)cc1)C(N)=O)[C@@H](C)O)[C@@H](C)O)[C@@H](C)O)[C@@H](C)O)C(C)C)[C@@H](C)O
hAmylin-R funct. EC50 (pM) [1]: 18 pM | hCTR funct. EC50 (pM) [2]: 15 pM

ASELSTAALGHLSAELHELATLPRTETGSGSP-NH2 [[des1, 12H, 30S, 31G]mimylin]
hAmylin-R funct. EC50 (pM) [1]: 14 pM | hCTR funct. EC50 (pM) [2]: 3 pM

B4: [N-terminal(C20 diacid-gGlu), des1, 2L, 4Q, 8L, 9V, 15Q, 16R, 19R, 21Q, 23Y, 27Q, 30S, 31Q, 32T, 33Y]mimylin (peptide)
peptide: {C20 diacid-γGlu}-LSQLSTLVLGRLSQRLHRLQTYPRTQTGSQTY-NH2
SMILES: CC(C)C[C@H](NC(=O)CC[C@H](NC(=O)CCCCCCCCCCCCCCCCCCC(=O)O)C(=O)O)C(=O)N[C@@H](CO)C(=O)N[C@@H](CCC(N)=O)C(=O)N[C@@H](CC(C)C)C(=O)N[C@@H](CO)C(=O)N[C@H](C(=O)N[C@@H](CC(C)C)C(=O)N[C@H](C(=O)N[C@@H](CC(C)C)C(=O)NCC(=O)N[C@@H](CCCNC(=N)N)C(=O)N[C@@H](CC(C)C)C(=O)N[C@@H](CO)C(=O)N[C@@H](CCC(N)=O)C(=O)N[C@@H](CCCNC(=N)N)C(=O)N[C@@H](CC(C)C)C(=O)N[C@@H](Cc1c[nH]cn1)C(=O)N[C@@H](CCCNC(=N)N)C(=O)N[C@@H](CC(C)C)C(=O)N[C@@H](CCC(N)=O)C(=O)N[C@H](C(=O)N[C@@H](Cc1ccc(O)cc1)C(=O)N1CCC[C@H]1C(=O)N[C@@H](CCCNC(=N)N)C(=O)N[C@H](C(=O)N[C@@H](CCC(N)=O)C(=O)N[C@H](C(=O)NCC(=O)N[C@@H](CO)C(=O)N[C@@H](CCC(N)=O)C(=O)N[C@H](C(=O)N[C@@H](Cc1ccc(O)cc1)C(N)=O)[C@@H](C)O)[C@@H](C)O)[C@@H](C)O)[C@@H](C)O)C(C)C)[C@@H](C)O
hAmylin-R funct. EC50 (pM) [1]: 10 pM | hCTR funct. EC50 (pM) [2]: 12 pM

ASELTTAVLGRLSAELHELATLPRTETGTGTP-NH2 [[des1, 6T, 9V, 30T, 31G, 32T]mimylin]
hAmylin-R funct. EC50 (pM) [1]: 46 pM | hCTR funct. EC50 (pM) [2]: 9 pM

B5: [N-terminal(C20 diacid-gGlu), des1, 4Q, 9V, 15Q, 16R, 19R, 21Q, 23Y, 27Q, 30S, 31Q, 32T, 33Y]mimylin (peptide)
peptide: {C20 diacid-γGlu}-ASQLSTAVLGRLSQRLHRLQTYPRTQTGSQTY-NH2
SMILES: CC(C)C[C@H](NC(=O)[C@H](CCCNC(=N)N)NC(=O)CNC(=O)[C@H](CC(C)C)NC(=O)[C@@H](NC(=O)[C@H](C)NC(=O)[C@@H](NC(=O)[C@H](CO)NC(=O)[C@H](CC(C)C)NC(=O)[C@H](CCC(N)=O)NC(=O)[C@H](CO)NC(=O)[C@H](C)NC(=O)CC[C@H](NC(=O)CCCCCCCCCCCCCCCCCCC(=O)O)C(=O)O)[C@@H](C)O)C(C)C)C(=O)N[C@@H](CO)C(=O)N[C@@H](CCC(N)=O)C(=O)N[C@@H](CCCNC(=N)N)C(=O)N[C@@H](CC(C)C)C(=O)N[C@@H](Cc1c[nH]cn1)C(=O)N[C@@H](CCCNC(=N)N)C(=O)N[C@@H](CC(C)C)C(=O)N[C@@H](CCC(N)=O)C(=O)N[C@H](C(=O)N[C@@H](Cc1ccc(O)cc1)C(=O)N1CCC[C@H]1C(=O)N[C@@H](CCCNC(=N)N)C(=O)N[C@H](C(=O)N[C@@H](CCC(N)=O)C(=O)N[C@H](C(=O)NCC(=O)N[C@@H](CO)C(=O)N[C@@H](CCC(N)=O)C(=O)N[C@H](C(=O)N[C@@H](Cc1ccc(O)cc1)C(N)=O)[C@@H](C)O)[C@@H](C)O)[C@@H](C)O)[C@@H](C)O
hAmylin-R funct. EC50 (pM) [1]: 16 pM | hCTR funct. EC50 (pM) [2]: 15 pM
